The assay concerns the target human FGF21 receptor (FGFR1) stably expressed on PathHunter U2OS cells (human) (UniProt P11362). As to the kind of experiment: cell-based or functional assay.

Sequence of human FGF21 receptor (FGFR1) stably expressed on PathHunter U2OS cells (human) (P11362 22-822): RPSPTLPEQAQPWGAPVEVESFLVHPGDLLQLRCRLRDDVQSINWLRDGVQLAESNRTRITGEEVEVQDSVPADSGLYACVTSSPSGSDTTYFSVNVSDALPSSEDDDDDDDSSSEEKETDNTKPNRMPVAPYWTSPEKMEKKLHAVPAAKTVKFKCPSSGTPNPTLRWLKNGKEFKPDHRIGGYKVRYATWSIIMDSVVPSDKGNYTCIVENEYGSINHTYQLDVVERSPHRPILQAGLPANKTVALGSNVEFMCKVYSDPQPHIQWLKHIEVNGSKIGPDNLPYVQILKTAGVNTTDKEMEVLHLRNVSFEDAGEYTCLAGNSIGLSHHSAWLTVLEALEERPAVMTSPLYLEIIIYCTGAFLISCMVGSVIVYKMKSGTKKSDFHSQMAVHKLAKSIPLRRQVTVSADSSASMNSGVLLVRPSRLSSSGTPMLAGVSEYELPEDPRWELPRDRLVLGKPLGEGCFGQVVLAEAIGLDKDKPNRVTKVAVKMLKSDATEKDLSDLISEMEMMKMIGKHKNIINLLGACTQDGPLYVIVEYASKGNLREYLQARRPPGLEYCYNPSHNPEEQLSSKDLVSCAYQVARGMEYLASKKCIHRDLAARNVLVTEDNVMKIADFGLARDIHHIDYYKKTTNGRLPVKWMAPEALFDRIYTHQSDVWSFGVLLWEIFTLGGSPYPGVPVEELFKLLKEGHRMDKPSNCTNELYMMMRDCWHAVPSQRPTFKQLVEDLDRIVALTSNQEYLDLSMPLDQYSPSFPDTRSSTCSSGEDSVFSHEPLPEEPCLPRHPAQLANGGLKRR

“FGF21 protein with I3C substitution and His6 tag (from UniProt Q9NSA1 32-209) (ligand)” returned an EC50, recruitment of the co-receptor beta-Klotho of 0.16 mg/L.
For “VitD-(3)-PEG2K-FGF21 (from UniProt Q9NSA1 32-209) (ligand)”, the EC50, recruitment of the co-receptor beta-Klotho came to 0.4 mg/L.
The substance “VitD-(25)-PEG2K-FGF21 (from UniProt Q9NSA1 32-209) (ligand)” showed an EC50, recruitment of the co-receptor beta-Klotho of 0.13 mg/L.

For the origin of these results see patent US20190183966A1.
